Values of other authors, collected in publication PMC8070608.
Like-named read-outs stand apart in the source and are kept apart here.

What was measured:
tPA (Homo sapiens) [1] = target: tPA (Homo sapiens) (UniProt P00750)
[2] = target: plasminogen (Homo sapiens) (UniProt P00747)
tPA (Homo sapiens) [3] = target: tPA (Homo sapiens) (UniProt P00750); remark: listed apart in the source

Chain of UniProt P00750 (P00750 36-562): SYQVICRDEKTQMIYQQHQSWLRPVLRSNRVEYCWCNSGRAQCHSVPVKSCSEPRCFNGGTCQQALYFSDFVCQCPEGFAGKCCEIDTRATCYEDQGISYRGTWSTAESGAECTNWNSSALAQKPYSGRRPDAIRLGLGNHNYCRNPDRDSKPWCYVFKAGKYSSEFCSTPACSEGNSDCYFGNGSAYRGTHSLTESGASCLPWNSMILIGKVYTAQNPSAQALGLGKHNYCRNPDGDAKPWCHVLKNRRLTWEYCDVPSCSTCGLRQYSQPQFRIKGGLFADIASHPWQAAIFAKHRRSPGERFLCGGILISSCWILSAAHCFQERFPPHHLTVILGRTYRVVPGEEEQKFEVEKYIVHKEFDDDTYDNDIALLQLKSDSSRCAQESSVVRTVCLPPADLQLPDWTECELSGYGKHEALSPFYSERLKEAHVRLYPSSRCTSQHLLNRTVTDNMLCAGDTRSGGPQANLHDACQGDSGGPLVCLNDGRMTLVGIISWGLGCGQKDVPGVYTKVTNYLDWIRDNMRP
Chain of UniProt P00747 (P00747 20-810): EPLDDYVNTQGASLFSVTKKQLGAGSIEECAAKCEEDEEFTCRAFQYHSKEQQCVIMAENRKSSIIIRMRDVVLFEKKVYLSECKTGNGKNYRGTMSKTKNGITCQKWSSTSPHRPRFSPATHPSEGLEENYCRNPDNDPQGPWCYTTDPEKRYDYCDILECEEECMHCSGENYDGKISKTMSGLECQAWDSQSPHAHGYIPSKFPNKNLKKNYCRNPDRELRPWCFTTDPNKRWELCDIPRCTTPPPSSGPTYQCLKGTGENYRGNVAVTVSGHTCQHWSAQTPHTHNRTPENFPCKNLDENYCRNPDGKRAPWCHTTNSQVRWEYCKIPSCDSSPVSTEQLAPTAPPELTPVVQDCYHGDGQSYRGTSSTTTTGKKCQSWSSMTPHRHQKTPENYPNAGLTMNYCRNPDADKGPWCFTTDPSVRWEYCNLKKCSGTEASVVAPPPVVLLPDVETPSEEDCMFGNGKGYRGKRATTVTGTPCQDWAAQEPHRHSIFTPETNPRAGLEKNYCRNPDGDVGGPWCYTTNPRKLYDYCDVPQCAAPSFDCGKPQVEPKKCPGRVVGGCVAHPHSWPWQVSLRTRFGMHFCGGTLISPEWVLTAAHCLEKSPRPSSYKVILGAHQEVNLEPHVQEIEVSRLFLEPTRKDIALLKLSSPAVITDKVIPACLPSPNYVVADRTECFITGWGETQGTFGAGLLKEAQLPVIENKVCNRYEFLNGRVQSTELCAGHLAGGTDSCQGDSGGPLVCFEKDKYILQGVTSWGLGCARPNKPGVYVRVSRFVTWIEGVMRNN

| Substance | Kd (tPA (Homo sapiens) [1]) | Kd [2] | Kd (tPA (Homo sapiens) [3]) |
| --- | --- | --- | --- |
| p11 (from UniProt P60903) | 680 nM | 110 nM |  |
| p36 (annexin A2) (from UniProt P07355) |  |  | 48 nM |
